How the values were obtained:
Assay in all cases: peptide microarray
Peptide_040 = target: T1, Peptide_040
T1 peptide: GEPPKSGDRSGYSSP

Peptide_043 = target: T2, Peptide_043
T2 peptide: SSPGSPGTPGSRSRT

Peptide_052 = target: T3, Peptide_052
T3 peptide: KSPSSAKSRLQTAPV

Peptide_069 = target: T4, Peptide_069
T4 peptide: GGGSVQIVYKPVDLS

Peptide_046 = target: Peptide_046
Peptide_068 = target: T5, Peptide_068
T5 peptide: KHVPGGGSVQIVYKP

Peptide_064 = target: T6, Peptide_064
T6 peptide: LDLSNVQSKCGSKDN

Peptide_073 = target: T7, Peptide_073
T7 peptide: VTSKCGSLGNIHHKP

Peptide_062 = target: T8, Peptide_062
T8 peptide: KVQIINKKLDLSNVQ

Peptide_058 = target: T9, Peptide_058
T9 peptide: SKIGSTENLKHQPGG

Peptide_042 = target: T10, Peptide_042
T10 peptide: RSGYSSPGSPGTPGS

Measured: binding result

B1: mAb TRC35 (antibody, V domains shown)
VH: QVQLQQPGTELVKPGASVKLSCKASGYTFTSYWLQWVKQRPGQGLEWIGEIDPSDSYTNYNQKFKGKATLTVDTSSSTAYMQLSSLTSEDSAVYYCATLTGSWGQGTTLAVSS
VL: DVLLTQTPLSLPVSLGDQASISCRASQSIVDSNGNTFLEWYLQKSGQSPKVLIYKVSNRFSGVPDRFSGRGSGTDFTLKISRVEAEDLGVYYCFQGSHVPYTFGGGTKLEIK
notes: Mouse hybridoma monoclonal antibody raised in tau knockout mice against tau/poly(A) RNA complexes; IgG1 isotype, kappa light chain; also called TRC35 monoclonal antibody; hybridoma clone #35
no binding (tested: 1 ug/ml): all assays above

— US20240352102A1 (UNITED STATES GOVERNMENT AS REPRESENTED BY THE DEPARTMENT …, published 2024)
